Test results published in article PMC9072312 (2022).

Key:
Assay in all cases: MST
[1] = biological target: NT-Als9-2-Ig (N′-terminal domain of C. albicans Als9, allele Als9-2, fused to the Fc domain of human IgG1) (C. albicans)
[2] = biological target: T1, PVR-Ig (extracellular portion of human PVR fused to the Fc domain of human IgG1) (human, UniProt P15151 21-343)
T1 chain: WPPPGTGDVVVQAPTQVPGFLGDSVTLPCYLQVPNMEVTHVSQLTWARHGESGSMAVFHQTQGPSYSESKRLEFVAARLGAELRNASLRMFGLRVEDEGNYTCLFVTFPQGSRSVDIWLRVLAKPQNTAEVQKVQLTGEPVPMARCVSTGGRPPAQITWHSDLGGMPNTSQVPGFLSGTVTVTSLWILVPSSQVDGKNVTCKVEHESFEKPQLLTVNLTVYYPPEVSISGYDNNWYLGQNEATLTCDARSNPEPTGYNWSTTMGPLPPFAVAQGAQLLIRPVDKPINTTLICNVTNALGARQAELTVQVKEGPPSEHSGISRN

[3] = biological target: T2, NT-Als6-Ig (N′-terminal domain of C. albicans Als6 fused to the Fc domain of human IgG1) (C. albicans, UniProt Q5A2Z7 19-329)
T2 chain: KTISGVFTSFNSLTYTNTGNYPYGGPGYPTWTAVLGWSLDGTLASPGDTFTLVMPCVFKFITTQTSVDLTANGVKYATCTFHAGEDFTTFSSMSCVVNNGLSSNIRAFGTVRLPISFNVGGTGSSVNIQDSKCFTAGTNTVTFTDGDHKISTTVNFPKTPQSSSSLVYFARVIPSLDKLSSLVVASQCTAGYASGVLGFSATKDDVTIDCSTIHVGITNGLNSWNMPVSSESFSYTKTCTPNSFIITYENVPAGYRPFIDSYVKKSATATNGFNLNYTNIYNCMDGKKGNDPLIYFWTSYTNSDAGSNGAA

[4] = biological target: T3, NT-Als7-Ig (N′-terminal domain of C. albicans Als7 fused to the Fc domain of human IgG1) (C. albicans, UniProt Q5A312 19-329)
T3 chain: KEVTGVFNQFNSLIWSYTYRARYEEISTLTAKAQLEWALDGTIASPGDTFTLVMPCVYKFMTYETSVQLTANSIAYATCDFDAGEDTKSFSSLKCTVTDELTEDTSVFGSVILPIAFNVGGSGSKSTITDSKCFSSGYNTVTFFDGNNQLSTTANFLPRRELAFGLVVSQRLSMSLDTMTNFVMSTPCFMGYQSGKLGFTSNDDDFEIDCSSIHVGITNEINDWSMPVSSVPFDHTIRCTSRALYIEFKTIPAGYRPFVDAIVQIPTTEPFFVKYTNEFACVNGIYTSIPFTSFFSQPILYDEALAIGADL

B1: TIGIT-Ig (extracellular ligand-binding domain of human TIGIT fused to the Fc domain of human IgG1) (Fc fusion)
chain: MMTGTIETTGNISAEKGGSIILQCHLSSTTAQVTQVNWEQQDQLLAICNADLGWHISPSFKDRVAPGPGLGLTLQSLTVNDTGEYFCIYHTYPDGTYTGRIFLEVLESSVAEHGARFQIP
modifications: fluorescently labeled with the Monolith NT Protein Labeling Kit RED-NHS
Work on B1 yielded a Kd [1] of 455 nM, a Kd [2] of 49 nM and a Kd [3] of 6 nM. The Kd [4] was 42 nM.
